Experimental data published in US20110251266, “APTAMER FOR NGF AND USE THEREOF” (Shionogi & Co., Ltd., published 2011).
Residue numbers refer to the chain shown, from its start.

B1: SEQ83 aptamer (ssRNA)
RNA: GGGAGAACUUCGACCAGAAGUUGAAGCUUGAAAAAAACCCAGGAUUAAACAGACAGUAUGUGCGCAUACAUGGAUCCUC
modifications: 2'-F pyrimidines
B2: SEQ67 aptamer (ssRNA)
RNA: GGGAGAACUUCGACCAGAAGUCGAUAACGAACAAAACUCCCAAAGGAAUAUAUGUGCGCAUACAUGGAUCCUCA
modifications: 2'-F pyrimidines
B3: SEQ39 aptamer (ssRNA)
RNA: GGGAGAACUUCGACCAGAAGUGUGAAAAGAACCCAAAUAAAACAACAAUGUAUGUGCGCAUACAUGGAUCCUCA
modifications: 2'-F pyrimidines
B4: SEQ35(6) (ssRNA)
RNA: GGGAAGCCUGUGGAGCUGCAGGAUGAAAAAAACCCAAA
modifications: 2'-F pyrimidines and a23, 2'-OMe at g1 g2 a4 a5 g6 g10 g12 g13 a14 g15 g18 a20 g21 g22 a29-a32 a36-a38, 5' and 3' idT
B5: SEQ35(1) (ssRNA)
RNA: B4 RNA
modifications: 2'-F pyrimidines, 2'-OMe at a4 a5 g6 g10 g12 g13 a14 g15 g18 a20 g21 g22, 5' and 3' idT
B6: SEQ35(5) (ssRNA)
RNA: B4 RNA
modifications: 2'-F pyrimidines, 2'-OMe at g1 g2 a4 a5 g6 g10 g12 g13 a14 g15 g18 a20 g21 g22 a29-a32 a36-a38, 5' and 3' idT
B7: SEQ5 aptamer (ssRNA)
RNA: GGGAAGCCUGUGGAGCUGCUUAAACAAGCAAGUGAAAAAAACCACAGCAAAUGUAAAAAGCAUUGUCACCAACAACUGG
modifications: 2'-F pyrimidines
B8: SEQ49 aptamer (ssRNA)
RNA: GGGAGAACUUCGACCAGAAGUGAAAGAAACUCCCAAGACGGUAACGAAAGUAUGUGCGCAUACAUGGAUCCUCA
modifications: 2'-F pyrimidines
B9: SEQ6 aptamer (ssRNA)
RNA: GGGAAGCCUGUGGAGCUGCAGGAUGAAAAAAACCCAAAAUUAAAUAAAAAAUAGACGGUGCAUUGUCACCAACAACUGG
modifications: 2'-F pyrimidines
B10: SEQ40 aptamer (ssRNA)
RNA: GGGAGAACUUCGACCAGAAGUUUGAAAAAAACCCAGGAAAAUGGAAGACGUAUGUGCGCAUACAUGGAUCCUCA
modifications: 2'-F pyrimidines
B11: SEQ64 aptamer (ssRNA)
RNA: B10 RNA with A28G, G36A, G37A, A39C, A41U, G43A, A45C, G47C, G50A
modifications: 2'-F pyrimidines
B12: SEQ42 aptamer (ssRNA)
RNA: B10 RNA with G36A, G37A, A39G, A41G, U42C, G43A, A45C, C49G, G50A
modifications: 2'-F pyrimidines
B13: SEQ38 aptamer (ssRNA)
RNA: GGGAGAACUUCGACCAGAAGAGAAUGAAACUCCACAAAGUACAUAAAACAUAUGUGCGCAUACAUGGAUCCUCA
modifications: 2'-F pyrimidines
B14: SEQ30(6) (ssRNA)
RNA: GGGAUAAAAAUAGAGUUUGAUAAACACCUGUAUUAAAACCC
modifications: 2'-F pyrimidines and some purines, 2'-OMe at most purines including g1-g3 as printed in p174, 5' and 3' idT
B15: SEQ30(5) (ssRNA)
RNA: B14 RNA
modifications: 2'-F pyrimidines and some purines, 2'-OMe at many purines as printed in p174, 5' and 3' idT
B16: SEQ52 aptamer (ssRNA)
RNA: GGGAGAACUUCGACCAGAAGUUUGAAAGAAACCCAAAUAUACAAAACACUAUGUGCGCAUACAUGGAUCCUCA
modifications: 2'-F pyrimidines
B17: SEQ62 aptamer (ssRNA)
RNA: GGGAGAACUUCGACCAGAAGUUUGAAAGAAACCCAAAUUAAAGUGAACAGUAUGUGCGCAUACAUGGAUCCUCA
modifications: 2'-F pyrimidines
B18: SEQ37 aptamer (ssRNA)
RNA: B17 RNA with U38G, U39G, A40U, A41G, G43A, U44A, G45C, G50A
modifications: 2'-F pyrimidines
B19: SEQ54 aptamer (ssRNA)
RNA: GGGAGAACUUCGACCAGAAGUCGAAAGUGAAAGAAACUCCAACGAAAGCAUAUGUGCGCAUACAUGGAUCCUCA
modifications: 2'-F pyrimidines
B20: SEQ12 aptamer (ssRNA)
RNA: GGGAAGCCUGUGGAGCUGCGAAACAGUGAAACAAACCACAGACUGAGAAAGCAGUAACAGCAUUGUCACCAACAACUGG
modifications: 2'-F pyrimidines
B21: SEQ51 aptamer (ssRNA)
RNA: GGGAGAACUUCGACCAGAAGUUUGAAAGAAACCCAAAAAAACAACAUAUGAACUAUGUGCGCAUACAUGGAUCCUCA
modifications: 2'-F pyrimidines
B22: SEQ57 aptamer (ssRNA)
RNA: GGGAGAACUUCGACCAGAAGUUUGAAAAAAACCCAAACACCGAAGCACAAAUAUGUGCGCAUACAUGGAUCCUCA
modifications: 2'-F pyrimidines
B23: SEQ55 aptamer (ssRNA)
RNA: GGGAGAACUUCGACCAGAAGUUUGAAAGAAACCCAAAAAUGAAUGCAACUAUGUGCGCAUACAUGGACCUCA
modifications: 2'-F all pyrimidines
B24: SEQ53 aptamer (ssRNA)
RNA: GGGAGAACUUCGACCAGAAGUUUGAAAGGAACCCAAAAACACAAAAUGUCUAUGUGCGCAUACAUGGAUCCUCA
modifications: 2'-F all pyrimidines
B25: SEQ86 aptamer (ssRNA)
RNA: GGGAGAACUUCGACCAGAAGGAGUAGCCAGUGAACCUGGAAUAUGAAAAAAACCUUAUGUGCGCAUACAUGGAUCCUC
modifications: 2'-F all pyrimidines
B26: SEQ50 aptamer (ssRNA)
RNA: B8 RNA with G26A, A29C, G37U, G40A, G41A, U42A, A43C, G46A, G50A
modifications: 2'-F all pyrimidines
B27: SEQ85 aptamer (ssRNA)
RNA: GGGAGAACUUCGACCAGAAGCGGAAGCCUGCGUAACCGCAGGAUGAAAACAACCGUAUGUGCGCAUACAUGGAUCCUC
modifications: 2'-F all pyrimidines
B28: SEQ48 aptamer (ssRNA)
RNA: GGGAGAACUUCGACCAGAAGUUUGAAAAGAACCCGAAAAACGCAUAAUAAUAUGUGCGCAUACAUGGAUCCUCA
modifications: 2'-F all pyrimidines
B29: SEQ46 aptamer (ssRNA)
RNA: B17 RNA with G28C, U38G, A40U, A42C, U44C, G45A, A46C, C48A, G50A
modifications: 2'-F all pyrimidines
B30: SEQ43 aptamer (ssRNA)
RNA: GGGAGAACUUCGACCAGAAGCUUGAAAAAACCCCAAUAUGAGAAUCAUAUAUGUGCGCAUACAUGGAUCCUCA
modifications: 2'-F all pyrimidines
B31: SEQ56 aptamer (ssRNA)
RNA: B8 RNA with G37C, G40A, G41A, U42A, A43U, A44G, G46A, A47C, G50C
modifications: 2'-F all pyrimidines

Target: T1, beta-NGF (nerve growth factor) (Homo sapiens, UniProt P01138 P01138:122-241)
T1 sequence (P01138 122-241, one chain of several): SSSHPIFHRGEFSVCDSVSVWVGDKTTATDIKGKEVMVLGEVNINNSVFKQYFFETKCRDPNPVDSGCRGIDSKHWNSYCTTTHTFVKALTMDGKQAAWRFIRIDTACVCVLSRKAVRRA
Test: cell_activity; Neuroscreen-1 neurite outgrowth
Conditions: tags: R&D Systems human NGF; chain copies: 2
Procedure: (§1) The neurite outgrowth inhibitory activity of aptamer was evaluated by using Neuroscreen-1 cell, which is a subclone of PC-12 cells. 2500 Cells per well were cultured for one day in an RPMI-1640 medium containing 2.5% horse serum and 1.25% fetal bovine serum in a 96 well flat-bottom plate coated with collagen type IV. A mixed solution of NGF (final concentration 15 ng/ml or 1.1 nM) prereacted in a serum-free RPMI-1640 medium at room temperature or 37° C. for 30 min to 1 hr and an aptamer (final concentration 500-3 nM) was added. Two or three days later, the cytoplasm and nuclei were stained using Cellomics Neurite Outgrowth Kits (manufactured by Thermo Scientific), and neurite length per cell was measured by Cellomics ArrayScan VTI (manufactured by Thermo Scientific). With the neurite length per cell obtained by culturing the cell for 2 days with the addition of NGF alone as inhibitory activity 0%, and that of the cell obtained by NGF free culture as inhibitory activity 100%, the inhibitory activity of the aptamer was calculated from the neurite length per cell obtained by culturing with the addition of NGF and the aptamer in mixture. […] When the inhibitory activity was 0% or below, ‘0%’ is indicated. When it was not less than 100%, ‘100%’ is indicated. The 50% inhibitory concentration was determined from the concentrations at two, above and below points sandwiching the 50% inhibitory activity.

Binder | IC50 [nM]
B1 | 7.1
B2 | 2.7
B3 | 6.3
B4 | 73.5
B5 | 94.7
B6 | 79.8
B7 | 21
B8 | 4.6
B9 | 17.7
B10 | 2.4
B11 | 4.8
B12 | 6.6
B13 | 7.3
UGUGGAGCUGCUUAAACAAGCAAGUGAAAAAAACCACA (ssRNA, 2'-F pyrimidines) [SEQ32 aptamer] | 84.7
GGGAUAAAAAUAGAGUUUGAUAAACACCUGUAUUAAAACCC (ssRNA, 2'-F pyrimidines) [SEQ30 aptamer] | 57.6
B14 | 58.9
B15 | < 100
B16 | 6.7
B17 | 2
B18 | 6.6
B19 | 7.6
B20 | 43.4
B21 | 11.9
B22 | 6.4

Target: T1, beta-NGF (nerve growth factor)
Test: SPR; blocks NGF-TrkA and NGF-P75
Conditions: tags: R&D Systems; chain copies: 2
Procedure: As directed in BIAcore Company's protocol, Protein A (21181, PIERCE) was immobilized on a CM5 sensor chip. About 1100 RU of human Trk A-Fc fused with the Fc portion of IgG (175-TK, R&D systems) was immobilized thereon. As the analyte, a mixture of NGF (0.1 μM) and each aptamer (0.33 μM) was injected after being allowed to stand for 30 minutes. […] When NGF binds stronger to a receptor than an aptamer, the aptamer may be removed and NGF may bind to the receptor. […] Using the binding amount of NGF and NGF receptor without an aptamer as 100, the binding amount of NGF and NGF receptor added with an aptamer was determined as a correction value. Here, the binding amount is the RU value at the peak top of the sensorgram of BIAcore (RU value immediately after completion of NGF injection). […] A similar experiment was performed for another receptor P75 (p75-Fc; R&D systems).

Binder | activity [% inhibition]
B23 | ≥ 60
B24 | ≥ 60
B25 | ≥ 60
B26 | ≥ 60
B27 | ≥ 60
B28 | ≥ 60
B29 | ≥ 60
B30 | ≥ 60

Target: T1, beta-NGF (nerve growth factor)
Test: cell_activity; neurite outgrowth, Neuroscreen-1 cells
Conditions: tags: R&D Systems; chain copies: 2
Procedure: as §1

Binder | IC50 [nM]
B23 | 49.9
B24 | < 10
B31 | 18.8
B26 | 25.4
B28 | 46.4
B29 | 25.4
B30 | < 10
